This note sets out measurements from publication PMC9292375, “Structural basis of an epitope tagging system derived from Haloarcula marismortui bacteriorhodopsin I D94N and its monoclonal antibody GD‐26” (The Febs Journal, 2021).

Assay in all cases: ITC; synthetic peptide in the syringe titrated into GD-26 Fab or GD-26 IgG (10 μM) in the cell; 25 °C; 50 mM Tris, 150 mM NaCl, pH 7.5; one-set-of-sites model
Common to all, as to details: both partners purified

The target in assay [1] is T1, TD peptide A7W (A7W (stands in the printed letters)).
T1 construct: TD peptide (C terminus of HmBRI) with A7W; numbers count on: the TD peptide; source: synthetic peptide
T1 chain: GTGATPWDD

Assay [2] concerns the target T2, TD peptide C2 (Asp8 and Asp9 removed) (Haloarcula marismortui (strain ATCC …)).
T2 construct: TD peptide residues 1-7 (Asp8 and Asp9 removed); numbers count on: the TD peptide; source: synthetic peptide
T2 chain: GTGATPA

Assay [3] addresses T3, TD peptide A7H (A7H (stands in the printed letters)).
T3 construct: TD peptide (C terminus of HmBRI) with A7H; numbers count on: the TD peptide; source: synthetic peptide
T3 chain: GTGATPHDD

The target in assay [4] is T4, TD peptide C1 (Asp9 removed) (Haloarcula marismortui (strain ATCC …)).
T4 construct: TD peptide residues 1-8 (Asp9 removed); numbers count on: the TD peptide; source: synthetic peptide
T4 chain: GTGATPAD

Assay [5] deals with T5, TD peptide A7E (A7E (stands in the printed letters)).
T5 construct: TD peptide (C terminus of HmBRI) with A7E; numbers count on: the TD peptide; source: synthetic peptide
T5 chain: GTGATPEDD

The target of assay [6] is T6, TD peptide P6F (P6F (stands in the printed letters)).
T6 construct: TD peptide (C terminus of HmBRI) with P6F; numbers count on: the TD peptide; source: synthetic peptide
T6 chain: GTGATFADD

Assay [7] concerns the target T7, TD peptide N4 (Gly1 to Ala4 deleted) (Haloarcula marismortui (strain ATCC …)).
T7 construct: TD peptide residues 5-9 (Gly1, Thr2, Gly3 and Ala4 deleted); numbers count on: the TD peptide; source: synthetic peptide
T7 chain: TPADD

Assay [8] addresses T8, TD peptide D9N (D9N (stands in the printed letters)).
T8 construct: TD peptide (C terminus of HmBRI) with D9N; numbers count on: the TD peptide; source: synthetic peptide
T8 chain: GTGATPADN

Assay [9] concerns the target T9, TD peptide A7R (A7R (stands in the printed letters)).
T9 construct: TD peptide (C terminus of HmBRI) with A7R; numbers count on: the TD peptide; source: synthetic peptide
T9 chain: GTGATPRDD

Assay [10] addresses T10, TD peptide A7Y (A7Y (stands in the printed letters)).
T10 construct: TD peptide (C terminus of HmBRI) with A7Y; numbers count on: the TD peptide; source: synthetic peptide
T10 chain: GTGATPYDD

Assay [11] deals with T11, TD peptide N2 (Gly1 and Thr2 deleted) (Haloarcula marismortui (strain ATCC …)).
T11 construct: TD peptide residues 3-9 (Gly1 and Thr2 deleted); numbers count on: the TD peptide; source: synthetic peptide
T11 chain: GATPADD

Assay [12] addresses T12, TD peptide A7T (A7T (stands in the printed letters)).
T12 construct: TD peptide (C terminus of HmBRI) with A7T; numbers count on: the TD peptide; source: synthetic peptide
T12 chain: GTGATPTDD

The target of assay [13] is T13, TD peptide P6G (P6G (stands in the printed letters)).
T13 construct: TD peptide (C terminus of HmBRI) with P6G; numbers count on: the TD peptide; source: synthetic peptide
T13 chain: GTGATGADD

In assay [14] the target is T14, TD peptide P6A (P6A (stands in the printed letters)).
T14 construct: TD peptide (C terminus of HmBRI) with P6A; numbers count on: the TD peptide; source: synthetic peptide
T14 chain: GTGATAADD

B1: GD-26 Fab (antigen-binding fragment of monoclonal antibody GD-26) (Fab, V domains shown)
VH: QVQLRQSGPELVKPGASVKMSCRASGYTFTNYNIHWVRQRPGQGLEWIGWIYPVDGTTKYNEKFKDKTTLTSDKSSSTAYMSLSGLTSEDSAIYFCARGLDNWGQGTSVTVSS
VL: DVVLTQTPLSLSVTIGQPASISCRSSQRLLYSNGKTYLNWFQQRPGQAPKYLMFQVSKLGPGIPARFSGSGSETDFTLKISRVEAEDLGVYYCFQGTFFPHTFGGGTKLEMK
notes: Fab heavy chain of GD-26; whole chain in PDB 7DOH; light chain of GD-26; the Fab was secreted; source: Expi293F, transient co-transfection, secreted; purified (HisTrap Excel, Superdex 200 gel filtration)
With B1, the dissociation constant (Kd) stood at 34.4 nM in assay [1]; 94 nM in [3]; 273 nM in [4]; 46.4 nM in assay [5]; 78.2 nM in [6]; 132 nM in assay [8]. Further, the Kd in [9] turned out to be 171 nM; in [10], 73.4 nM; in [11], 548 nM; in [12], 449 nM; in assay [13], 892 nM; in assay [14], 140 nM. The binding result in [2] and in assay [7] was “no binding” in each case.
